We go through two molecules from patent US20050208042A1 (GENETICS INSTITUTE, published 2005).

Test [1] concerns the target T1, human B7-1 (CD80) expressed on the cell surface (CHO/hB7-1 cells) (human, UniProt P33681 35-288).
T1 construct: whole, on cells; Also used for native B7-1 on human PBL in the MLR; also called rhB7-1
T1 sequence (looked up): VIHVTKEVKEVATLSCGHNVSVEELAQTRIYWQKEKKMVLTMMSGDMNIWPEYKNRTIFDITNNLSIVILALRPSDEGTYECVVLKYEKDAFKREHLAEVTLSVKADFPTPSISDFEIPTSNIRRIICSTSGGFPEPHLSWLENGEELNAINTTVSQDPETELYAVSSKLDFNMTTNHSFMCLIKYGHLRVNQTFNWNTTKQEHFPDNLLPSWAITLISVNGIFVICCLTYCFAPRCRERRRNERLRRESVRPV
As to the kind of experiment: competitive binding against 125I-murine anti-B7-1 on CHO/hB7-1 cells; humanized anti-B7-1 mAb. The method, then:
(§1) The relative affinities of the murine and humanized anti-B7-1 (1F1) antibodies for the B7-1 antigen were determined by competitive binding assays. Three-fold serial dilutions of the unlabeled murine or humanized anti-B7-1 mAbs were mixed with a fixed amount of radio-labeled murine anti-B7-1 mAb (¹²⁵I-anti-B7-1, 2800 cpm/fmol; 40,000-50,000 cpm/test in PBS containing 2% fetal calf serum). 1×10⁵ CHO/hB7-1 cells expressing hB7-1 on their surface were added subsequently and the mixture (total volume=200 μL) incubated for 2 hrs at 4° C. with gentle shaking. The cell antibody mixture was then transferred to Sarstedt Micro tubes (Part # 72.702) containing 100 μL of 80% dibutyl phthlate-20% olive oil. After centrifugation in a microfuge, the Sarstedt tubes were plunged into dry ice for several minutes. Cell bound ¹²⁵I-labeled mAb was determined by clipping the cell pellet containing tips of each tube into scintillation vials and counting in a gamma counter. Bound and free counts were determined. The bound counts were plotted against the concentration of the cold competitor mAbs.

Test [2] has as its target T2, human B7-2 (CD86) expressed on the cell surface (CHO/hB7-2 cells) (human, UniProt P42081 24-329).
T2 construct: whole, on cells; Also used for native B7-2 on human PBL in the MLR row under functional; also called rhB7-2
T2 sequence (looked up): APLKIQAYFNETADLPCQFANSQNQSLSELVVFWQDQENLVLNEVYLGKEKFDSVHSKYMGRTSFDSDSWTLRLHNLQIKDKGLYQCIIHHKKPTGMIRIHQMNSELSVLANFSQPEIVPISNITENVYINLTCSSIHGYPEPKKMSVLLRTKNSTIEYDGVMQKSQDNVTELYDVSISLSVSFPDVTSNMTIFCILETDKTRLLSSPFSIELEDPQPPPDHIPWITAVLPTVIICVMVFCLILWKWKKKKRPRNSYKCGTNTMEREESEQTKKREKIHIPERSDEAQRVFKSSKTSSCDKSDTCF
As to the kind of experiment: 125I direct binding, CHO cells expressing hB7-2 as control for non-specific binding.

Test [3] deals with T1, human B7-1 (CD80) expressed on the cell …. Briefly: cell-based or functional assay.
For test [4] the target is unchanged. As to the kind of experiment: direct binding of 125I-labeled antibody to CHO/hB7-1 cells, nonspecific binding (CHO cells with hB7-2) subtracted. The method, then: Binding assays were begun by plating CHO/hB7-1 cells onto 96 well tissue culture plates at 10,000 cells/well in complete medium and the plates incubated at 37° C. for two days. Adherent cells were washed gently with assay buffer (PBS containing nonfat dry milk and sodium azide). Murine and humanized anti-B7-1 mAbs labeled with ¹²⁵I were serially diluted in assay buffer and incubated with the cells overnight at 4° C. to allow biding to reach equilibrium. Unbound labeled antibody was removed from the cells by a series of gentle washings with assay buffer and the bound ¹²⁵I-labeled antibody was detected using a ¹²⁵I scintillant and detector system. Non-specific binding was determined for each dilution of labeled antibody in an identical manner as described above except that the target CHO cells expressed hB7-2 which is not bound by either the murine or humanized anti-B7-1 mAbs.
The mean value of triplicate determinations minus the non-specific binding was calculated and fit to a hyperbolic saturation binding curve using Graphpad Prism software. […] Both murine and humanized anti-B7-1 mAbs recognize cell surface expressed human B7-1.

Test [5] deals with T3, human B7-1Ig (recombinant soluble hB7-1Ig) (human, UniProt P33681 35-242).
T3 construct: extracellular domain; Secreted by CHO cells, purified on protein A, immobilized on the BIACORE chip; not shown: hinge-CH2-CH3 domains of human IgG1 heavy chain
T3 sequence (looked up): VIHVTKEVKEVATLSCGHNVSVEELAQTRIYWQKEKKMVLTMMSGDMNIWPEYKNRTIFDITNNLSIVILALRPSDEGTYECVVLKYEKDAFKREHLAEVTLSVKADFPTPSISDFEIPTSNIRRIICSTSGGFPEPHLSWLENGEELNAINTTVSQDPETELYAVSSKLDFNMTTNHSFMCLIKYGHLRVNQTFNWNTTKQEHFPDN
Briefly: SPR (BIACORE), hB7-1Ig immobilized, bivalent model, mean of three runs. The procedure:
(§2) The BIACORE® biosensor (BIACORE®, Uppsalla, Sweden) was used to determine binding kinetics of murine and humanized anti-B7-1 monoclonal antibodies to human B7-1Ig (hB7-1Ig) protein. Human B7-1Ig was immobilized onto the dextran matrix of a BIACORE® sensor chip. Humanized and murine anti-B7-1 mAbs were tested at 200, 100, 50, and 20 nM on the immobilized hB7-1Ig. Each mAb dilution was tested 4 times per run and a total of three separate runs were performed. Anti-human B7-1Ig binding was measured in real time by Surface Plasmon Resonance (SPR) and global analysis was performed using the bivalent binding model in BIA evaluation software (Version 3.1). For each sample, the association (kₐ) dissociation (kd) and equilibrium dissociation constant (KD) were determined.

The target of test [6] is T1, human B7-1 (CD80) expressed on the cell …. Briefly: competition binding on CHO/hB7-1 cells: unlabeled competitor against 125I-murine anti-B7-1 tracer, bound cpm. The method, then: as §1
The target is the same in test [7]. As to the kind of experiment: competitive binding against 125I-murine anti-B7-1 on CHO/hB7-1 cells; murine anti-B7-1 mAb. The procedure:
as §1

Test [8] deals with T3, human B7-1Ig (recombinant soluble …). Briefly: SPR (BIACORE), hB7-1Ig immobilized. The method, then:
as §2
For orientation: Surface plasmon resonance follows binding to a sensor surface in real time, without labels.

Test [9] concerns the target T1, human B7-1 (CD80) expressed on the cell …. As to the kind of experiment: competitive binding against 125I-humanized 1F1 on CHO cells expressing rhB7-1. The procedure:
(§3) The affinity of the mouse and humanized 1F1 antibodies for the B7-1 antigen was determined by competitive binding with radio-iodinated humanized 1F1 antibody. Three-fold serial dilutions of unlabeled mouse or humanized 1F1 antibodies were mixed with a fixed amount of radio-iodinated humanized 1F1 antibody (40,000-50,000 cpm per test) in PBS containing 2% fetal calf serum, 0.1% sodium azide. 3×10⁴ CHO cells expressing cell surface rhB7-1 were added subsequently and the mixture (in a total volume of 200 μL) was incubated for 2 hr at 4° C. with gentle shaking. The cell-antibody suspension was then transferred to Sarstedt Micro Tubes (part #72.702) containing 100 μL of 80% dibutyl phthalate-20% olive oil. After centrifugation in a microfuge, the Sarstedt tubes were plunged into dry ice for several minutes. Cell-bound ¹²⁵I was determined by clipping the tips of each tube (containing cell pellets) into scintillation vials and counting in a gamma counter. Bound and free counts were determined and the ratio plotted against the concentrations of the cold competitor antibodies according to the method of Berzofsky and Berkower (J. A. Berzofsky and I. J. Berkower, in Fundamental Immunology, W. E. Paul, Raven Press, New York, pp. 595-644 (1984)).

Test [10] has the same target. As to the kind of experiment: competition binding on CHO cells expressing rhB7-1: unlabeled competitor against 125I-humanized 1F1 tracer, bound/free ratio. The method, then:
as §3

B1: humanized anti-B7-1 mAb (humanized 1F1), isotype not stated in the example (antibody, V domains shown)
VH: EVQLVQSGAEVKKPGASVKVSCKPSGFNIKDYYMHWVRQAPGQGLEWIGWIDPENGNTLYDPKFQGKATITADTSTSTAYMELSSLRSEDTAVYYCAREGLFFAYWGQGTLVTVSS
VL: DIQMTQSPSSLSASVGDRVTITCSVSSSISSSNLHWYQQKPGKAPKPLIYGTSNLASGVPSRFSGSGSGTDYTLTISSLQPEDVATYYCQQWSSYPLTFGQGTKVEIK
notes: Same variable regions as m8; also called hu1F1
Usually EC50 (read off the curve) stands for the concentration needed to bring the measured effect to its halfway point. Read a low EC50 (read off the curve) as a more potent agent. As for B1, the Kd is ~1 nM in test [1] and 2.8 nM in test [5]. The binding result in test [2] was “no binding”. For the same molecule, the “IC50 of inhibition of CD28+ human T cell proliferation stimulated with PMA and CHO/hB7-1 cells” value in test [3] came to 0.11 nM. In addition, the “EC50 (read off the curve)” value in test [4] was ~1 nM. Also, in [6], the “IC50 (read off the curve)” value was ~2 nM.

B2: murine 1F1 monoclonal antibody (murine anti-human B7-1 mAb) (antibody, V domains shown)
VH: EVHLQQSGAELVRPGALVKLSCKPSGFNIKDYYMHWVKQRPEQGLEWIGWIDPENGNTLYDPKFQGKASITADTSSNTAYLQLSSLTSEDTAVYYCAREGLFFAYWGQGTPVTVSA
VL: EIVLTQSPALMAASPGEKVTITCSVSSSISSSNLHWYQQKSETSPKPWIYGTSNLASGVPVRFSGSGSGTSYSLTISSMEAEDAATYYCQQWSSYPLTFGAGTKLELK
notes: Hybridoma mouse antibody with kappa light chain; also called mouse 1F1; murine anti-B7-1
Take B2: the binding result in test [2] is reported as “no binding”. Also, the figures for the Kd in test [7] and in test [5] were ~1 nM and 0.56 nM, respectively. Besides, in test [8], the “fold higher binding affinity than the humanized anti-B7-1 mAb” value came to 5 fold. Besides, the “IC50 of inhibition of CD28+ human T cell proliferation stimulated with PMA and CHO/hB7-1 cells” value in test [3] was 0.22 nM. For the same molecule, the Ka in [9] is ~1e+09 M⁻¹. Also, the “IC50 (read off the curve)” value in test [10] and in [6] was ~1 nM throughout.
